Test results from patent US20260265391A1 (BIOTHEUS, published 2026).
Substitutions are numbered along the chain they refer to.

B1: CP870893-IgG2 (antibody, V domains shown)
VH: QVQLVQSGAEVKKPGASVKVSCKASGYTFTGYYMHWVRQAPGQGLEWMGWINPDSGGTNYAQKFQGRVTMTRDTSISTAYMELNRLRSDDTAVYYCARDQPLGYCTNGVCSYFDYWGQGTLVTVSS
VL: DIQMTQSPSSVSASVGDRVTITCRASQGIYSWLAWYQQKPGKAPNLLIYTASTLQSGVPSRFSGSGSGTDFTLTISSLQPEDFATYYCQQANIFPLTFGGGTKVEIKR
notes: Control antibody; also called CP870893-IgG2-wt; CP-870893-G2-WT
B2: ADI-47720 (antibody, human IgG1, kappa, V domains shown)
VH: EVQLVESGGGLVQPGRSLRLSCAASGFTFDDYAMHWVRQAPGKGLEWVSGISWSSGSIGYADSVKGRFTISRDNAKNSLYLQMNSLRAEDTAVYYCAKDPTATTGARGYFDLWGRGTLVTVSS
VL: B1 VL with Y30S, N45K, T50A, T53S, A91R, N92A, I93S, L96P
B3: ADI-55142 (antibody, human IgG1, kappa, V domains shown)
VH: QVQLVESGGGVVQPGRSLRLSCAASGFTFEKYGMHWVRQAPGKGLEWVAVISYEGEKKYYADSVKGRFTISRDNSKNTLYLQMNSLRAEDTAVYYCARDTSRGHDIWGQGTMVTVSS
VL: EIVLTQSPGTLSLSPGERATLSCRASQSVSYSYLAWYQQKPGQAPRLLIYGASSRANGIPDRFSGSGSGTDFTLTISRLEPEDFAVYYCSDYADYPPFTFGGGTKVEIKR
B4: ADI-55147 (antibody, human IgG1, kappa, V domains shown)
VH: B3 VH with E30G, K31S, E56V
VL: B3 VL with S32D, S54A, S90Q, D91Q
B5: ADI-55145 (antibody, human IgG1, kappa, V domains shown)
VH: B3 VH with E56T, K57S
VL: B3 VL with R24Q, S32N, A56N, S90Q, D91Q, A93S

molecular target: T1, human CD40 overexpressed on cells (human, UniProt P25942 21-277); assay: cell-based or functional assay
T1 sequence (P25942 21-277 limits assumed): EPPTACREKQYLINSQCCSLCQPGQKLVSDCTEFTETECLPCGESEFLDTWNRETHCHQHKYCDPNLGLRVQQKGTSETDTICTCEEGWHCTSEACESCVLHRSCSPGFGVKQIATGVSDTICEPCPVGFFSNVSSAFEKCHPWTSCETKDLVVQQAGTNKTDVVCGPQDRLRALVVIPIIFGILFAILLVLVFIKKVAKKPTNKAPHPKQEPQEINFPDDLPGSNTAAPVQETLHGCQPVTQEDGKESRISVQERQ

Binder	Signal amplification with bead crosslinking (NFkB-Luc2P reporter, U2OS cells overexpressing human CD40)	Signal amplification without bead crosslinking (NFkB-Luc2P reporter, U2OS cells overexpressing human CD40)
B1	14.8	4.7
B2	11.5	1.3

molecular target: T1, human CD40 overexpressed on cells; assay: cell-based or functional assay; remark: another data set of the same source

Binder	EC50 of the CD40-NFkB reporter gene assay (without beads cross-linking)
B1	131 nM
B2	~1070 nM

molecular target: T1, human CD40 overexpressed on cells; assay: cell-based or functional assay; remark: another data set of the same source

Binder	EC50 of the CD40-NFkB reporter gene assay (with beads cross-linking)
B1	181 nM
B2	304 nM

molecular target: T1, human CD40 overexpressed on cells; assay: flow cytometry on CHO-S cells overexpressing human CD40
Experimental: (§1) Specifically, by transfecting the pCHO1.0 vector (Invitrogen) with the human/cynomolgus CD40 cDNA cloned into the MCS and followed by applying pressure selection, CHO-S cells overexpressing human/cynomolgus CD40 were generated. The expanded CD40 overexpressing cells were adjusted to the appropriate cell density and plated on 96-well flow plate. After centrifugation, the cells were incubated with a gradient-diluted sample at 4° C. for 30 minutes. and the cells were then washed twice with PBS, and followed by incubation with a fluorescent secondary antibody diluted to the appropriate concentration, at 4° C. for 30 min. Following two washes with PBS, cells were resuspended in PBS and fluorescent signals were detection on the CytoFlex flow cytometer to calculate the corresponding MFI.

Binder	EC50
B1	8 nM
B2	4.82 nM
B3	7.69 nM
B4	7.49 nM
B5	5.26 nM

molecular target: T2, cynomolgus CD40 overexpressed on CHO-S cells (cynomolgus, UniProt G7PG38 21-278); assay: flow cytometry on CHO-S cells overexpressing cynomolgus CD40
T2 construct: whole, on cells; also called cynomolgus CD40 expressing CHO cells
Experimental: as §1

Binder	EC50
B1	7.28 nM
B2	5.54 nM
B3	6.32 nM
B4	4.49 nM
B5	6.66 nM

molecular target: T3, human CD40-Fc protein (human, UniProt P25942 21-193); assay: BLI (ForteBio), IgG on AHQ sensor, 100 nM CD40-Fc in solution, bivalent, 1:1 model
T3 construct: also called human CD40-Fc fusion protein; CD40-Fc antigen; not shown: Fc part
T3 sequence (P25942 21-193 limits assumed): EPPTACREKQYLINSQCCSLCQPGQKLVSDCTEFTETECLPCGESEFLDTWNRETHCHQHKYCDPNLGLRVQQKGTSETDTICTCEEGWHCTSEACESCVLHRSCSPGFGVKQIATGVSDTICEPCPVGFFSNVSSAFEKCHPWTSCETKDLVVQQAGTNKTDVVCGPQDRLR
Experimental: (§2) The antibody-loaded sensor was further incubated in a high concentration of irrelevant intact antibody solution for 10 minutes to saturate and block the Fc binding sites on the AHQ sensor. The blocked sensor was then incubated with 100 nM CD40-Fc antigen until a plateau was reached, and then the sensor was transferred to the analysis buffer for at least 2 minutes for dissociation rate measurement. Kinetic analysis was performed using a 1:1 binding model.

Binder	Kd
B2	9.32 nM
B3	0.146 nM
B4	0.139 nM
B5	0.169 nM

molecular target: T4, cynomolgus CD40-Fc protein (cynomolgus, UniProt G7PG38 21-193); assay: as above
T4 construct: not shown: Fc part
Experimental: as §2

Binder	Kd
B2	6.07 nM
B3	0.193 nM
B4	0.208 nM
B5	0.226 nM
